Here are results for 52 molecules from patent publication US20090291081A1 (AbbVie / Abbott, published 2009).

Positions count from the first letter of the chain named. Where only a bound is given, the exact number is not on record here.

What is called IC50 is the concentration that inhibits the measured activity by half.

The chains are these.
B1: ABT1-165 (other)
VL: DIQMTQSPSSLSASVGDRVTITCRASSSIRAGLAWYQQKPGKAPKLLIGPESGLQSGVPSRFSGSGSGTDFTLTISSLQPEDFATYYCGQGIDGPATFGQGTKVEIKR
notes: VK dAb
B2: ABT1-162 (other)
VL: DIQMTQSPSSLSASVGGRVTITCRASHYIRNRLHWYQQKPGKAPKLLIARGSALQSGVPSRFSGSGSGTDFTLTISSLQPEDFATYYCVQDGYLPPTFGQGTKVEIKR
notes: VK dAb
B3: ABT2-65-1 (other)
VH: EVQLLESGGGLVQPGGSLRLSCAASGFTFEDYQMGWVRQAPGKGLEWVSSISAMGNRTYYADSVKGRFTISRDDSKNTLYLQMKSLRAEDTAVYYCAQNLVRTQSKMWMFDYWGQGTLVTVSS
notes: VH dAb
B4: ABT2-65-24 (other)
VH: B3 VH with E30A, D31A, K84N
notes: VH dAb
B5: ABT2-65-27 (other)
VH: B3 VH with K84N, Q98E, T103L, Q104W, S105K, K106G, M107R
notes: VH dAb
B6: ABT2-65-14 (other)
VH: B3 VH with S25P, E30P, D31Y, Q33P, K84N, Q98K
notes: VH dAb
B7: ABT2-65-119 (other)
VH: B3 VH with E30I, D31A, Q33P, K84N, T103L, Q104G, S105R, K106S, M107R
notes: VH dAb
B8: ABT2-65-33 (other)
VH: B3 VH with K84N, T103Y, Q104M, S105K, K106S, M107Q
notes: VH dAb
B9: ABT2-65-38 (other)
VH: B3 VH with S71Y, K84N
notes: VH dAb
B10: ABT2-65-124 (other)
VH: B3 VH with A23V, M54V, K84N, T91I, T103L, Q104G, S105R, K106S, M107R
notes: VH dAb
B11: ABT2-65-126 (other)
VH: EVQLLESGGGLVQPGGSLRISCVTSGFTFEDYQMGWVRQAPGKGLEWVSSISAMGNRTYYADSVKGRFTISRDDSKNTLNLQMNSLRAEDTAVYYCAQNLVRLGRSRWVFDYWGQGTLVTVSS
notes: VH dAb
B12: ABT2-65-84 (other)
VH: B11 VH with I20L, T24A, T28S, G42R, V48I, N80Y, V109M
notes: VH dAb
B13: ABT2-65-37 (other)
VH: B3 VH with E30A, K84N
notes: VH dAb
B14: ABT2-65-22 (other)
VH: B3 VH with E30L, D31G, Q33P, R72P, K84N, Q98K
notes: VH dAb
B15: ABT2-65-121 (other)
VH: B11 VH with I20L, T24A, S52A, M54H, N80Y, V109M
notes: VH dAb
B16: ABT2-65-23 (other)
VH: B3 VH with G16E, E30K, D31V, Q33P, K84N, Q98K
notes: VH dAb
B17: ABT2-65-25 (other)
VH: B3 VH with K84N, T103Y, Q104R, K106Y, M107Y, S122L
notes: VH dAb
B18: ABT2-65-49 (other)
VH: B3 VH with E1G, K84N
notes: VH dAb
B19: ABT2-65-90 (other)
VH: B11 VH with I20L, T24A, L45Q, N80Y, V109M, Q115H
notes: VH dAb
B20: ABT2-65-11 (other)
VH: B3 VH with E30R, D31A, Q33P, K84N, Q98N
notes: VH dAb
B21: ABT2-65-39 (other)
VH: B3 VH with K84N, Q98G
notes: VH dAb
B22: ABT2-65-12 (other)
VH: B3 VH with E30R, D31E, Q33W, K84N, Q98N
notes: VH dAb
B23: ABT2-65-125 (other)
VH: B11 VH with I20L, T24A, V48I, N80Y, V109M
notes: VH dAb
B24: ABT2-65-16 (other)
VH: B3 VH with K84N, Q98E, R102K, T103W, Q104R, K106A, M107E
notes: VH dAb
B25: ABT2-65-29 (other)
VH: B3 VH with K84N, R102L, T103V, Q104R, S105V, K106G, M107W
notes: VH dAb
B26: ABT2-65-129 (other)
VH: B11 VH with I20L, T24A, S50T, I51V, V64M, N80Y, V109M
notes: VH dAb
B27: ABT2-65-46 (other)
VH: B3 VH with K84N, Q98K, N99W, V101T, M107L, W108G, M109Y
notes: VH dAb
B28: ABT2-65-114 (other)
VH: B11 VH with I20L, V23A, T24A, E30R, D31E, Q33M, N80Y, V109M
notes: VH dAb
B29: ABT2-65-13 (other)
VH: B3 VH with E30R, D31E, K84N, Q98N
notes: VH dAb
B30: ABT2-65-30 (other)
VH: B3 VH with Q3R, K84N, T103L, Q104N, S105R, K106R, M107D
notes: VH dAb
B31: ABT2-65-31 (other)
VH: B3 VH with K84N, R102K, T103I, Q104M, S105R, K106L, M107K
notes: VH dAb
B32: ABT2-65-132 (other)
VH: B3 VH with K84N, Q98E, T103L, Q104A, K106R, M107R
notes: VH dAb
B33: ABT2-65-127 (other)
VH: B11 VH with I20L, T24A, S49T, N80Y, V109M
notes: VH dAb
B34: ABT2-65-130 (other)
VH: B11 VH with I20L, T24A, G55V, N80Y, V109M
notes: VH dAb
B35: ABT2-65-2 (other)
VH: B3 VH with E30S, D31T, Q33N, K84N, Q98N
notes: VH dAb
B36: ABT2-65-120 (other)
VH: B11 VH with I20L, T24A, N56M, N80Y, V109M
notes: VH dAb
B37: ABT2-65-118 (other)
VH: B11 VH with I20L, V23A, T24A, E30A, D31T, Q33T, N80Y, V109M
notes: VH dAb
B38: ABT2-65-15 (other)
VH: B3 VH with E30G, D31I, K84N
notes: VH dAb
B39: ABT2-65-18 (other)
VH: B3 VH with E30G, K84N, Q98E, R102Q, T103W, Q104R, S105I, K106G, M107A
notes: VH dAb
B40: ABT2-65-78 (other)
VH: B11 VH with I20L, T24A, N80Y, R105T, V109M, T117A
notes: VH dAb
B41: ABT2-65-115 (other)
VH: B11 VH with I20L, V23A, T24A, E30I, N80Y, V109M
notes: VH dAb
B42: ABT2-65-83 (other)
VH: B11 VH with I20L, T24A, N80Y, L86Q, V109M
notes: VH dAb
B43: ABT2-65-87 (other)
VH: B11 VH with I20L, T24A, G44D, N80Y, V109M
notes: VH dAb
B44: ABT2-65-32 (other)
VH: B3 VH with K84N, R102A, T103V, Q104S, S105R, K106G, M107R
notes: VH dAb
B45: ABT2-65-26 (other)
VH: B3 VH with K84N, R102L, T103V, Q104R, K106G, M107Y
notes: VH dAb
B46: ABT2-65-131 (other)
VH: B11 VH with G15R, I20L, T24A, A53T, N80Y, Y95H, V109M
notes: VH dAb
B47: ABT2-65-75 (other)
VH: B11 VH with P14H, I20L, T24A, N80Y, R105K, V109M
notes: VH dAb
B48: ABT2-65-117 (other)
VH: B11 VH with Q13R, I20L, T24A, V48I, N80Y, V109M
notes: VH dAb
B49: ABT2-65-9 (other)
VH: B3 VH with Q13H, E30R, D31W, Q33P, K84N, Q98E
notes: VH dAb
B50: ABT2-65-76 (other)
VH: B11 VH with I20L, T24A, S49T, N80Y, V109M
notes: VH dAb
B51: ABT2-65-28 (other)
VH: B3 VH with K84N, R102Q, T103F, Q104R, S105R, K106S, M107Q
notes: VH dAb
B52: ABT2-63 (other)
VL: DIQMTQSPSSLSASVGDRVTITCRASQSIRVFLSWYQQKPGKAPKLLIYNASYLQSGVPSRFSGSGSGTDFTLTISSLQPEDFATYYCQQRALYPTTFGQGTKVEIKR
notes: VK dAb

For one experiment, the target named is T1, human IL-1α (human, UniProt P01583 113-271).
T1 sequence (looked up): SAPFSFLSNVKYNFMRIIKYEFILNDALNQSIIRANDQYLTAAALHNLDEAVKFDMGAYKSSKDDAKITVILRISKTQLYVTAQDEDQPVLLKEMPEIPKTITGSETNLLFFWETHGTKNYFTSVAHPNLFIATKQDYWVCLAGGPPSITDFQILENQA
Nature of the experiment: cell-based or functional assay.
On to B1, for which the ND50 came out at 1000 nM.

On to B2, for which the ND50 amounted to 6.2 nM.

For a further experiment, the target named is T2, human IL-1β (human, UniProt P01584 117-269).
T2 construct: antigen of the ABT2 dAbs; also called hIL-1β; IL-1 beta
Nature of the experiment: IC50 column of Table 63; receptor binding assay presumed.
Molecule B3 registered an IC50 of 100 nM.

For the molecule B4, the IC50 stood at 50 nM. This IC50 lies about 2-fold lower than the previous one.

B5 had an IC50 of 3.5 nM.

In the case of B6, the IC50 was determined as 1000 nM.

Regarding B7, the IC50 is 4 nM.

B8 had an IC50 of 20 nM. Compared with the last molecule, the IC50 is about 5-fold higher.

In turn, B9 registered an IC50 of 30 nM.

Molecule B10 showed an IC50 of 3.8 nM.

Molecule B11 registered an IC50 of 4.3 nM.

The molecule B12 returned an IC50 of 60 nM.

As to B13, the 50% inhibitory concentration (IC50) is 100 nM.

B14 came in with an IC50 of 100 nM. That is a sub-micromolar value.

For the molecule B15, the IC50 came out at 3.9 nM.

On to B16, for which the half-inhibitory concentration (IC50) turned out to be 800 nM.

B17: the IC50 is 4 nM.

As to B18, the IC50 amounted to 20 nM.

On to B19, for which the half-inhibitory concentration (IC50) came out at 300 nM. Compared with the last molecule, the IC50 is about 15-fold higher.

In turn, B20 came in with a 50% inhibitory concentration (IC50) of 50 nM.

B21 displayed an IC50 of 300 nM.

Regarding B22, the IC50 is 20 nM.

Turning to B23, the IC50 turned out to be 4 nM.

In turn, B24 showed an IC50 of 200 nM.

Consider B25, for which the IC50 came to 20 nM. This IC50 lies about 10-fold lower than the previous one.

The molecule B26 gave an IC50 of 3.4 nM.

As for B27, the half-maximal inhibitory concentration (IC50) worked out at 30 nM. This IC50 lies about 8.8-fold higher than the previous one.

Molecule B28 displayed a half-maximal inhibitory concentration (IC50) of 4 nM.

Take B29: the half-inhibitory concentration (IC50) is 20 nM. This IC50 lies about 5-fold higher than the previous one.

The molecule B30 came in with an IC50 of 20 nM.

B31: the IC50 came to 3 nM.

In the case of B32, the IC50 came to 5 nM.

On to B33, for which the IC50 came out at 5.5 nM.

In the case of B34, the half-inhibitory concentration (IC50) worked out at 4.3 nM.

Regarding B35, the IC50 was 20 nM.

Regarding B36, the IC50 came out at 4.2 nM.

The molecule B37 gave a 50% inhibitory concentration (IC50) of 4.6 nM. The IC50 values of the last two molecules are within 1.5-fold of each other.

For the molecule B38, the IC50 came out at 100 nM.

Consider B39, for which the half-inhibitory concentration (IC50) stood at 20 nM.

B40: the IC50 came to 30 nM.

B41 yielded an IC50 of 4 nM.

As to B42, the IC50 is 300 nM.

For B43, the IC50 amounted to 50 nM.

Consider B44, for which the IC50 worked out at 4 nM.

Regarding B45, the IC50 was found to be 20 nM.

As to B46, the half-maximal inhibitory concentration (IC50) came out at 13.2 nM.

Turning to B47, the IC50 turned out to be 30 nM.

B48: the IC50 worked out at 10 nM. Against the preceding molecule, the IC50 is about 3-fold lower.

The molecule B49 came in with an IC50 of 100 nM. This IC50 is about 10-fold higher than that of the molecule before.

B50 yielded an IC50 of 8 nM.

The molecule B51 registered an IC50 of 5 nM.

For the molecule B52, the IC50 came to 1000 nM.

Another experiment addresses T1, human IL-1α. The experiment in a line: Table 62 IC50; RBA presumed.
As to B1, the IC50 is over 1000 nM.

On to B2, for which the IC50 is 1000 nM.
